The source of these data is article PMC10344914, “Discovery and mechanism-guided engineering of BHET hydrolases for improved PET recycling and upcycling” (Nature Communications, 2023).

Substrate in data set [1]: O=C(OCCO)c1ccc(C(=O)OCCO)cc1
Kind of data set: purified protein. As to conditions: 50 mM potassium phosphate (Na2HPO4-NaH2PO4), pH 7.5, 30 °C, BHET 0.8-15 mM. Format: biochemical, Bacillus subtilis.

Substrate in data set [2]: O=C(OCCO)c1ccc(C(=O)OCCO)cc1
Kind of data set: purified protein. Format: biochemical, Chryseobacterium sp. PET-29. As to conditions: 50 mM potassium phosphate (Na2HPO4-NaH2PO4), pH 7.5, 30 °C, BHET 0.8-15 mM.

B1: BsEst (Bacillus subtilis subsp. subtilis str. 168) (protein)
chain: MTHQIVTTQYGKVKGTTENGVHKWKGIPYAKPPVGQWRFKAPEPPEVWEDVLDATAYGSICPQPSDLLSLSYTELPRQSEDCLYVNVFAPDTPSKNLPVMVWIHGGAFYLGAGSEPLYDGSKLAAQGEVIVVTLNYRLGPFGFLHLSSFNEAYSDNLGLLDQAAALKWVRENISAFGGDPDNVTVFGESAGGMSIAALLAMPAAKGLFQKAIMESGASRTMTKEQAASTSAAFLQVLGINEGQLDKLHTVSAEDLLKAADQLRIAEKENIFQLFFQPALDPKTLPEEPEKAIAEGAASGIPLLIGTTRDEGYLFFTPDSDVHSQETLDAALEYLLGKPLAEKVADLYPRSLESQIHMMTDLLFWRPAVAYASAQSHYAPVWMYRFDWHPKKPPYNKAFHALELPFVFGNLDGLERMAKAEITDEVKQLSHTIQSAWITFAKTGNPSTEAVNWPAYHEETRETLILDSEITIENDPESEKRQKLFPSKGE
notes: catalytic triad S189-E310-H399; L410-K418 barrier
On to B1, for which, in “purified protein [1]”, the Km (as a rule, the substrate concentration at which the rate is half of its maximum) was 100 ± 20 µM; the catalytic constant (kcat) (in general, the number of substrate molecules converted per active site and unit of time at saturation) came to 37.7 ± 1.98 s⁻¹; the catalytic efficiency (kcat/Km) – broadly, the turnover number divided by the Michaelis constant – is 382000 ± 84500 M⁻¹ s⁻¹.

B2: BsEst (Bacillus subtilis subsp. subtilis str. 168; DEL410-418/INS409GG) (protein)
chain: MTHQIVTTQYGKVKGTTENGVHKWKGIPYAKPPVGQWRFKAPEPPEVWEDVLDATAYGSICPQPSDLLSLSYTELPRQSEDCLYVNVFAPDTPSKNLPVMVWIHGGAFYLGAGSEPLYDGSKLAAQGEVIVVTLNYRLGPFGFLHLSSFNEAYSDNLGLLDQAAALKWVRENISAFGGDPDNVTVFGESAGGMSIAALLAMPAAKGLFQKAIMESGASRTMTKEQAASTSAAFLQVLGINEGQLDKLHTVSAEDLLKAADQLRIAEKENIFQLFFQPALDPKTLPEEPEKAIAEGAASGIPLLIGTTRDEGYLFFTPDSDVHSQETLDAALEYLLGKPLAEKVADLYPRSLESQIHMMTDLLFWRPAVAYASAQSHYAPVWMYRFDWHPKKPPYNKAFHALELPFVFGNGGAEITDEVKQLSHTIQSAWITFAKTGNPSTEAVNWPAYHEETRETLILDSEITIENDPESEKRQKLFPSKGE
notes: as for B1
As to B2, in “purified protein [1]”, the Michaelis-Menten constant (Km) came out at 80 ± 30 µM, the kcat stood at 102 ± 5.18 s⁻¹ and the catalytic efficiency (kcat/Km) came out at 1.35e+06 ± 334000 M⁻¹ s⁻¹.

B3: ChryBHETase (Chryseobacterium sp. PET-29) (protein)
chain: MTTQQHKKIHTFHTSFGTIPALKGNGVIRAKSIRYARSQRFKKPEPLPYPEHDEIPDKTPVCPQNVSPLLDRLIQKTDVEQFEPDESPQFLTITRPEHFNENEKLPVIVWIHGGSYEIGCGDLPTSDPSVWVKEQHIIVVSVSYRLGLFGFLGGSEERPANLGLYDMIAALQWIKQYIRDFGGDPENITLFGQSSGGDAIAHLMISEETENLFRHVIIHSAPLGFRINRQKMSHEFFLKTDILKDEPDALKMVAGYRTFLPSFRKYGLKTSMPFCTQYGHPPLCQEEETMPNWKQNAKKYDVLIGSNQDETAFYVKTSQTGIYTYLPQRILNKIVRKTTASIYEKPAKAFAENLAAGGGNVYQFVIRSTLKSNNIGASHCVDLPLLFENKEAWQSAELLKDVPWEYIQENGKKLRALWAEFARSGSISEDSERPEILKLKKVKN
notes: catalytic triad S194-E310-H379; V66-K76 barrier
Turning to B3, in the data set “purified protein [2]”, the Km came out at 90 ± 20 µM, the kcat is 6.85 ± 0.53 s⁻¹ and the kcat/Km stood at 77400 ± 11000 M⁻¹ s⁻¹.

B4: ChryBHETase (Chryseobacterium sp. PET-29; DEL66-76/INS65GG) (protein)
chain: MTTQQHKKIHTFHTSFGTIPALKGNGVIRAKSIRYARSQRFKKPEPLPYPEHDEIPDKTPVCPQNGGTDVEQFEPDESPQFLTITRPEHFNENEKLPVIVWIHGGSYEIGCGDLPTSDPSVWVKEQHIIVVSVSYRLGLFGFLGGSEERPANLGLYDMIAALQWIKQYIRDFGGDPENITLFGQSSGGDAIAHLMISEETENLFRHVIIHSAPLGFRINRQKMSHEFFLKTDILKDEPDALKMVAGYRTFLPSFRKYGLKTSMPFCTQYGHPPLCQEEETMPNWKQNAKKYDVLIGSNQDETAFYVKTSQTGIYTYLPQRILNKIVRKTTASIYEKPAKAFAENLAAGGGNVYQFVIRSTLKSNNIGASHCVDLPLLFENKEAWQSAELLKDVPWEYIQENGKKLRALWAEFARSGSISEDSERPEILKLKKVKN
notes: as for B3
Turning to B4, in the data set “purified protein [2]”, the Michaelis constant (Km) worked out at 120 ± 30 µM, the catalytic constant (kcat) is 12.9 ± 1.24 s⁻¹ and the kcat/Km worked out at 109000 ± 12900 M⁻¹ s⁻¹.
